# Experimental data as given in the supplement of paper PMC6757056.
# ± gives the standard deviation of the averaged measurements.
# B1: library; a variant is named by its letters at N, in order (parent)
# chain: GCUGUCACCGGUGUAUUACCCUAGUGGUCGACCGGUCUGAUGAGUCUNNNNNNAGACGAAACAGC
# Legend:
# hypoxanthine [1] = variants of: B1; assay: normalized RNA/DNA level with ligand (relative to sTRSVctl = 100) (log10 (% of sTRSVctl)); ligand: hypoxanthine (xanthine aptamer); higher = less ribozyme self-cleavage, higher mRNA level; details: ligand concentration (+) RNA-Seq: 5 mM, HEK293T, reporter: mCherry (pCS4076), ligand present: yes
# Summary of the method: (§1)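 HEK293T cells were transfected with library plasmids carrying ribozyme switches linked to an mCherry reporter, or an eGFP reporter in some ligand experiments, at 4 µg per well of a 6-well plate, with any ligand added 1 h beforehand. After 72 h, total RNA was extracted with EDTA, reverse-transcribed, amplified, barcoded and sequenced. RNA level was defined as RNA reads over DNA reads, normalized to a spiked-in non-cleaving sequence or to the top-ranked sequences. That value was multiplied by 100 and converted to log10, the top set was 25 sequences, and only sequences with ≥100 DNA reads were retained.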
# hypoxanthine [2] = variants of: B1; assay: normalized RNA/DNA level without ligand (relative to sTRSVctl = 100) (log10 (% of sTRSVctl)); ligand: hypoxanthine (xanthine aptamer); higher = less ribozyme self-cleavage, higher mRNA level; details: HEK293T, reporter: mCherry (pCS4076), ligand present: no
# Summary of the method: as §1
Variant,normalized RNA/DNA level with ligand (log10) (hypoxanthine [1]),normalized RNA/DNA level without ligand (log10) (hypoxanthine [2])
GCUGUCACCGGUGUAUUACCCUAGUGGUCGACCGGUCUGAUGAGUCUGUAAUAAGACGAAACAGC [GUAAUA],1.878 ± 0.0069,1.823 ± 0.0023
GCUGUCACCGGUGUAUUACCCUAGUGGUCGACCGGUCUGAUGAGUCUCGCGUUAGACGAAACAGC [CGCGUU],1.99 ± 0.054,1.905 ± 0.0075
GCUGUCACCGGUGUAUUACCCUAGUGGUCGACCGGUCUGAUGAGUCUUCGGACAGACGAAACAGC [UCGGAC],1.981 ± 0.002,1.877 ± 0.012
GCUGUCACCGGUGUAUUACCCUAGUGGUCGACCGGUCUGAUGAGUCUCCCGGUAGACGAAACAGC [CCCGGU],2 ± 0.069,1.92 ± 0.071
GCUGUCACCGGUGUAUUACCCUAGUGGUCGACCGGUCUGAUGAGUCUACUUACAGACGAAACAGC [ACUUAC],1.93 ± 0.046,1.84 ± 0.052
GCUGUCACCGGUGUAUUACCCUAGUGGUCGACCGGUCUGAUGAGUCUCACAACAGACGAAACAGC [CACAAC],1.93 ± 0.027,1.839 ± 0.018
GCUGUCACCGGUGUAUUACCCUAGUGGUCGACCGGUCUGAUGAGUCUGGUGAAAGACGAAACAGC [GGUGAA],1.9 ± 0.061,1.65 ± 0.024
GCUGUCACCGGUGUAUUACCCUAGUGGUCGACCGGUCUGAUGAGUCUACUCCUAGACGAAACAGC [ACUCCU],1.965 ± 0.011,1.905 ± 0.018
GCUGUCACCGGUGUAUUACCCUAGUGGUCGACCGGUCUGAUGAGUCUACCUCUAGACGAAACAGC [ACCUCU],1.99 ± 0.054,1.926 ± 0.01
GCUGUCACCGGUGUAUUACCCUAGUGGUCGACCGGUCUGAUGAGUCUGCAGUAAGACGAAACAGC [GCAGUA],1.948 ± 0.012,1.772 ± 0.0069
GCUGUCACCGGUGUAUUACCCUAGUGGUCGACCGGUCUGAUGAGUCUCUAAAUAGACGAAACAGC [CUAAAU],1.883 ± 0.01,1.82 ± 0.03
GCUGUCACCGGUGUAUUACCCUAGUGGUCGACCGGUCUGAUGAGUCUUAAGUCAGACGAAACAGC [UAAGUC],1.932 ± 0.0068,1.925 ± 0.016
GCUGUCACCGGUGUAUUACCCUAGUGGUCGACCGGUCUGAUGAGUCUUUACGGAGACGAAACAGC [UUACGG],1.94 ± 0.04,1.85 ± 0.029
GCUGUCACCGGUGUAUUACCCUAGUGGUCGACCGGUCUGAUGAGUCUACACAAAGACGAAACAGC [ACACAA],1.92 ± 0.065,1.78 ± 0.028
GCUGUCACCGGUGUAUUACCCUAGUGGUCGACCGGUCUGAUGAGUCUCCACGGAGACGAAACAGC [CCACGG],1.91 ± 0.028,1.85 ± 0.025
GCUGUCACCGGUGUAUUACCCUAGUGGUCGACCGGUCUGAUGAGUCUAAUGGCAGACGAAACAGC [AAUGGC],1.929 ± 0.0094,1.79 ± 0.02
GCUGUCACCGGUGUAUUACCCUAGUGGUCGACCGGUCUGAUGAGUCUACUACAAGACGAAACAGC [ACUACA],1.92 ± 0.0088,1.841 ± 0.014
GCUGUCACCGGUGUAUUACCCUAGUGGUCGACCGGUCUGAUGAGUCUGUGGCUAGACGAAACAGC [GUGGCU],1.96 ± 0.042,1.881 ± 0.0077
GCUGUCACCGGUGUAUUACCCUAGUGGUCGACCGGUCUGAUGAGUCUCUUUUCAGACGAAACAGC [CUUUUC],1.95 ± 0.06,1.92 ± 0.077
GCUGUCACCGGUGUAUUACCCUAGUGGUCGACCGGUCUGAUGAGUCUUGUUUAAGACGAAACAGC [UGUUUA],1.942 ± 0.0063,1.88 ± 0.035
GCUGUCACCGGUGUAUUACCCUAGUGGUCGACCGGUCUGAUGAGUCUUCCUAUAGACGAAACAGC [UCCUAU],1.957 ± 0.0089,1.851 ± 0.0031
